Where two headings read alike, the source gives them in different places.
What was measured:
[1] = Biodistribution of technetium-labelled peptides; assay type: in vivo, CD1 mice
Protocol: To evaluate the capacity to cross the BBB in vivo, the selected peptides, pepH1 and pepH3, were analyzed for biodistribution in CD1 mice. The peptides were labelled with technetium at a final concentration of 8.5×10^−5 M and diluted in PBS. CD1 mice were injected (iv injection, tail vein). The mice were sacrificed by cervical dislocation after 5 and 60 minutes of incubation. The tissues of interest were dissected and washed to remove excess blood, weighed, and measured for radioactivity. Technetium radioactivity of the different peptides was measured for different organs.
Initial results are presented in Table 11, where “% I.A. refers to the “% injected activity”, that is, the amount of radioactivity measured in a given organ compared to the total originally injected.
The biodistribution studies were repeated, using higher doses of each peptide, specifically, a one hundred fold increase, as well as using PepH2 as a negative control, and allowing incubation for 2 minutes and 60 minutes. Tissue biodistribution profile in percentage of injected radiopeptide activity per gram of tissue/organ was measured and results are presented in Table 12.

[2] = Partition coefficient (log Po/w) of radiopeptides; assay type: physicochemical
From the text: (§1) Table 7 lists each peptide's name, isoelectric point (PI), charge (number of positive residues), calculated mass (in Da), and ion found; as well as the name, calculated mass, and found ion for the corresponding conjugate; and also retention times in HPLC and the partition coefficient (log Po/w). These values allowed the determination of the hydrophilic nature of peptides, where pepH1 and pepH4 were identified as the most hydrophilic peptides.

[3] = system: bEnd3 cells; assay: Uptake test: cellular interaction (acid wash) and internalization (lysate); assay type: cell-based
Protocol: In addition to testing models of BBB, an uptake test was performed to determine the internalizing ability of the candidate peptides. BEnd3 cells were cultured in 24 well plates. At each time point, the medium containing the peptide, which had not interacted with the cells, was collected. In the next step, the cells were washed with an acidic buffer that releases peptides more strongly bound to the cell membrane (sample acid wash). Finally, the cells were lysed to release internalized peptides and to quantify the activity inside the cells. Results are showing in FIGS. 23A-23E.
FIGS. 23A-23E show percent activity of the radioisotope technetium-labelled peptides in the media, wash buffer (acid wash) and lysate, after 15 minutes, 5 hours, and 24 hours of incubation with bEnd3 cells; and values were obtained from two independent assays. […] PepM′, as well as showing high transmigration (about 50%), also appeared to become internalized and accumulated within the cells (about 13% of radioactivity in the lysate).
(§2) Table 9 summarizes results regarding uptake (internalization) and cellular interaction, as well as transmigration across an in vitro model for BBB, for peptides labelled with technetium and gallium, after 15 minutes, 5 hours, and 24-hours of incubation, based on percent recovery of radiopeptide. The Table lists the peptides, providing each peptide's name, % BBB transmigration, % cellular interaction, and % internalized, each after […], 5 hours, and 24 hours of incubation.

[4] = system: in vitro model of the BBB (bEnd3 cells); assay: Transmigration of radiolabelled peptides across in vitro BBB model; assay type: in vitro ADME
Protocol: Using the same in vitro model of the BBB described above, peptides labelled with technetium and gallium were tested for the ability to cross endothelial barrier. For each peptide, bEnd3 cells cultured on “tissue culture inserts” were incubated with 5 ρCimL^−1-labelled peptide for different incubation times: 15 min, 5 h and 24 h. As a control, the model without cells was used (Control no cells) or (Filters) and compared to models with cells (BBB) or (Cells).
FIGS. 21A-21F show the percent activity of the radioisotope technetium-labelled peptides at the apex and base after 5 hours of incubation with the in vitro model described above, using the BBB-model or no cells (as a control); and values were obtained from two independent assays. […] Moreover, the results indicated promising candidates. Specifically, for each of pepH1 and pepH3, there was an overpass of 50% in the control, compared with only 20% in the presence of a cell barrier. The translocation of pepH2 was not observed in either the control nor in the BBB model.
Results for the incubations of 15 minutes, 5 hours, and 24 hours are shown together in FIGS. 22A-22F. That is, FIGS. 22A-22F show the percent activity of the radioisotope technetium-labelled peptides at the apex and base after 15 minutes, 5 hours, and 24 hours of incubation with the in vitro model described above, using the BBB-model or no cells (as a control); and values were obtained from two independent assays. Differences again were observed, confirming the integrity of the barrier, as well as identifying peptides that crossed the barrier. […] PepR′ thus was excluded from further tests.
as §2

[5] = Stability in blood and urine after injection, HPLC; assay type: in vivo, mice; conditions: 5 and 60 minutes following injection
Protocol: Finally, stability of the peptides was determined. Urine and blood were taken from the animals after death, filtered, and analyzed by RT-HPLC. HPLC analysis was conducted to assess the stability of pepH1 and pepH3 peptides in blood and urine, 5 and 60 minutes post-administration, compared to the respective original preparations.
FIGS. 28A-28D show the profile of pepH1 and pepH3 each in its original preparation, prior to injection into the animals, and then after 5 and 60 minutes following injection in the blood and urine.

[6] = Features of peptides: isoelectric point, charge; assay type: physicochemical; conditions: original peptide
From the text: as §1

CSCC[C@H](NC(=O)[C@H](Cc1ccccc1)NC(=O)[C@H](CC(C)C)NC(=O)[C@H](CCCCN)NC(=O)CCCN(CCN)CCn1nc(C)c(CC(=O)O)c1C)C(=O)N[C@@H](C)C(=O)N[C@@H](CC(C)C)C(=O)N[C@H](C(=O)N[C@@H](C)C(=O)N[C@@H](Cc1ccccc1)C(=O)N[C@@H](CC(C)C)C(=O)N[C@@H](CCCNC(=N)N)C(=O)N[C@@H](Cc1ccccc1)C(=O)N[C@@H](CC(C)C)C(=O)N[C@H](C(=O)O)[C@@H](C)O)C(C)C [^99mTc(CO)3-Pz^1-pepH2, metal not drawn]
tissue uptake at 2 min ([1]; CD1, blood, iv, 80 ug/mouse, total radioactivity, 80 μg/mouse, read-out: injected activity in Blood): 8.9 ± 0.6 %ID/g | tissue uptake at 1 h ([1]; CD1, blood, iv, 80 ug/mouse, total radioactivity, 80 μg/mouse, 1 hour, read-out: injected activity in Blood): 3.8 ± 0.2 %ID/g | tissue uptake at 2 min ([1]; CD1, bone, iv, 80 ug/mouse, total radioactivity, 80 μg/mouse, read-out: injected activity in Bone): 1.6 ± 0.1 %ID/g | tissue uptake at 1 h ([1]; CD1, bone, iv, 80 ug/mouse, total radioactivity, 80 μg/mouse, 1 hour, read-out: injected activity in Bone): 1.4 ± 0.1 %ID/g | tissue uptake at 2 min ([1]; CD1, brain, iv, 80 ug/mouse, total radioactivity, 80 μg/mouse, read-out: injected activity in Brain): 0.37 ± 0.04 %ID/g | tissue uptake at 1 h ([1]; CD1, brain, iv, 80 ug/mouse, total radioactivity, 80 μg/mouse, 1 hour, read-out: injected activity in Brain): 0.2 ± 0.1 %ID/g | tissue uptake at 2 min ([1]; CD1, heart, iv, 80 ug/mouse, total radioactivity, 80 μg/mouse, read-out: injected activity in Heart): 3.45 ± 0.02 %ID/g | tissue uptake at 1 h ([1]; CD1, heart, iv, 80 ug/mouse, total radioactivity, 80 μg/mouse, 1 hour, read-out: injected activity in Heart): 1.2 ± 0.2 %ID/g | dose excreted at 1 h ([1]; CD1, in vivo, iv, 80 ug/mouse, total radioactivity, 80 μg/mouse, 1 hour, read-out: Excretion): 12.7 ± 4.2% | tissue uptake at 2 min ([1]; CD1, intestine, iv, 80 ug/mouse, total radioactivity, 80 μg/mouse, read-out: injected activity in Intestine): 0.5 ± 0.1 %ID/g | tissue uptake at 1 h ([1]; CD1, intestine, iv, 80 ug/mouse, total radioactivity, 80 μg/mouse, 1 hour, read-out: injected activity in Intestine): 1.64 ± 0.07 %ID/g | tissue uptake at 2 min ([1]; CD1, kidney, iv, 80 ug/mouse, total radioactivity, 80 μg/mouse, read-out: injected activity in Kidney): 5 ± 1.5 %ID/g | tissue uptake at 1 h ([1]; CD1, kidney, iv, 80 ug/mouse, total radioactivity, 80 μg/mouse, 1 hour, read-out: injected activity in Kidney): 3.3 ± 0.8 %ID/g | tissue uptake at 2 min ([1]; CD1, liver, iv, 80 ug/mouse, total radioactivity, 80 μg/mouse, read-out: injected activity in Liver): 16.7 ± 1.1 %ID/g | tissue uptake at 1 h ([1]; CD1, liver, iv, 80 ug/mouse, total radioactivity, 80 μg/mouse, 1 hour, read-out: injected activity in Liver): 21.7 ± 0.9 %ID/g | tissue uptake at 2 min ([1]; CD1, lung, iv, 80 ug/mouse, total radioactivity, 80 μg/mouse, read-out: injected activity in Lung): 126 ± 20 %ID/g | tissue uptake at 1 h ([1]; CD1, lung, iv, 80 ug/mouse, total radioactivity, 80 μg/mouse, 1 hour, read-out: injected activity in Lung): 51.4 ± 4.4 %ID/g | tissue uptake at 2 min ([1]; CD1, muscle, iv, 80 ug/mouse, total radioactivity, 80 μg/mouse, read-out: injected activity in Muscle): 0.61 ± 0.09 %ID/g | tissue uptake at 1 h ([1]; CD1, muscle, iv, 80 ug/mouse, total radioactivity, 80 μg/mouse, 1 hour, read-out: injected activity in Muscle): 0.43 ± 0.03 %ID/g | tissue uptake at 2 min ([1]; CD1, spleen, iv, 80 ug/mouse, total radioactivity, 80 μg/mouse, read-out: injected activity in Spleen): 13.6 ± 0.3 %ID/g | tissue uptake at 1 h ([1]; CD1, spleen, iv, 80 ug/mouse, total radioactivity, 80 μg/mouse, 1 hour, read-out: injected activity in Spleen): 10.6 ± 0.4 %ID/g | tissue uptake at 2 min ([1]; CD1, stomach, iv, 80 ug/mouse, total radioactivity, 80 μg/mouse, read-out: injected activity in Stomach): 2 ± 0.6 %ID/g | tissue uptake at 1 h ([1]; CD1, stomach, iv, 80 ug/mouse, total radioactivity, 80 μg/mouse, 1 hour, read-out: injected activity in Stomach): 9.4 ± 0.2 %ID/g | log Po/w of radiopeptides [2]: 0.65 ± 0.13

VQQLTKRFSL (Dengue virus 2; /note=“#PepH1”)
where the radiopeptide is found in the uptake test (media, acid wash, lysate) ([3]; 99mTc): mainly remained in the incubation medium | Cellular interaction ([3]; 99mTc, 0.25 hours): 0.63 ± 0.1% | Internalization ([3]; 99mTc, 0.25 hours): 0.16 ± 0.0% | Cellular interaction ([3]; 99mTc, 5 hours): 0.30 ± 0.0% | Internalization ([3]; 99mTc, 5 hours): 0.10 ± 0.0% | Cellular interaction ([3]; 99mTc, 24 hours): 0.38 ± 0.1% | Internalization ([3]; 99mTc, 24 hours): 0.12 ± 0.0% | Cellular interaction ([3]; GaCl3, 0.25 hours): 0.25 ± 0.0% | Internalization ([3]; GaCl3, 0.25 hours): 0.00 ± 0.0% | Cellular interaction ([3]; GaCl3, 5 hours): 0.80 ± 0.3% | Internalization ([3]; GaCl3, 5 hours): 0.10 ± 0.0% | Cellular interaction ([3]; GaCl3, 24 hours): 0.62 ± 0.0% | Internalization ([3]; GaCl3, 24 hours): 0.16 ± 0.0% | BBB transmigration ([4]; 99mTc, 0.25 hours): 3.75 ± 0.5% | overpass in the control (no cells) ([4]; 99mTc, 5 h, no cells): 50% | BBB transmigration ([4]; 99mTc, 5 hours): 24.3 ± 0.4% | BBB transmigration ([4]; 99mTc, 5 hours, listed as pepH1): 20% | BBB transmigration ([4]; 99mTc, 24 hours): 73.83 ± 9.4% | BBB transmigration ([4]; 99mTc, 24 hours, listed as pepH1): about 70% | BBB transmigration / translocation (summary of Table 9) ([4]; 24 h, both types of markings): about 70% | BBB transmigration ([4]; GaCl3, 0.25 hours): 1.13 ± 0.2% | BBB transmigration ([4]; GaCl3, 5 hours): 21.56 ± 0.4% | BBB transmigration ([4]; GaCl3, 24 hours): 71.47 ± 3.7% | excreted ([1]; 140 μg (pepH1, pepH3) or 80 μg (pepH2), after 60 min): 32.7% | brain uptake ([1]; after 2 min): rapid brain uptake | brain washout ([1]; mouse, in vivo): rapid brain washout | stability in blood and urine [5]: stable in the blood and urine | Charge (number of positive residues) [6]: 2 | PI (isoelectric point) [6]: 11

From US10654917B2, “Antibody molecules and peptide delivery systems for use in alzheimer's disease and related disorders” (TECHNOPHAGE, INVESTIGAÇĀO E DESENVOLVIMENTO EM …, priority 2015, dated 2020)
